# Measured values taken from patent US8361510B2, “Nanogels for cellular delivery of therapeutics” (Georgia Tech Research Corporation, priority 2008, dated 2013).
# Where no end group is shown, it is not given here.
# Tests used:
# [1] = siRNA encapsulation in nanogels ("breathing-in" loading, UV-vis of supernatant); assay type: physicochemical; settings: lyophilized nanogels reswollen in siRNA solution
# Text: In vitro siRNA encapsulation and release. Our group employs a “breathing-in” method for the encapsulation of various macromolecules within nanogels. In a typical method, lyophilized nanogels are resuspended in an aqueous solution containing the macromolecule to be loaded. Importantly, this is done using a loading solution volume that is almost completely imbibed by the swelling nanogels. In this fashion, the hydrogel network imbibes the payload with high efficiency and without relying on simple equilibrium partitioning to determine the maximum loading level. […]
# The encapsulation efficiency was determined via ultracentrifugation of the nanogel loading solution and measurement of supernatant siRNA concentration by UV-vis spectroscopy (Shimadzu UV-1601). The moles of siRNA in the loading solution (msiRNA, Loading) and in the supernatant (msiRNA, Supernatant) were determined via interpolation from a separately constructed standard curve of absorbance vs. concentration (R^2>0.99). The encapsulation efficiency (EE) of the system could then be calculated through analysis of the amount of siRNA in the loading solution and the remaining moles of siRNA in the supernatant after nanogel swelling was complete, as illustrated by Equation 1 and in similar encapsulation experiments. […]
# [2] = siRNA release from nanogels in PBS containing 10% fetal bovine serum; assay type: physicochemical; settings: after the first 12 hours, 37° C., PBS with 10% fetal bovine serum
# Description: [formula] The release of solutes from nanogels was performed in 10% serum to simulate physiological conditions. Release experiments were performed by dispersing 200 μL of loaded nanogels in 2.20 mL of 0.01 M phosphate buffered saline containing 10% fetal bovine serum (equilibrated at 37° C.) in 3.2 mL polycarbonate centrifuge tubes (Beckman Coulter, USA). The nanogel suspension was allowed to incubate at 37° C. while shaking. At specific time points, the tubes were centrifuged for […] at 687 000×g (at 37° C.), and an aliquot of supernatant (0.75 mL) was removed for UV-vis analysis. This volume was replaced with fresh buffer. […] The cumulative siRNA released was calculated by calculating the total moles detected in the supernatant as a function of time, as described in Equation 2.
# All release studies were performed in triplicate for statistical analysis, using identical nanogel loading and release conditions.
# Hey cells = assay: Trypan blue exclusion assay; assay type: cell-based
# Description: Toxicity Studies—Trypan blue exclusion assay. Hey cells were plated onto an 8-well chamber slide (1×10^4 cells/well) and allowed to adhere overnight at 37° C. and 5% CO2. The media was removed, the wells washed with PBS, and the medium replaced. PNIPMAm nanogels, YSA-conjugated nanogels, and SCR-conjugated nanogels were added to cells and incubated for 72 h. Untreated cells were used as controls. After 72 h, the cells washed with PBS, and a 1:1 solution of trypan blue was added to each well. After 1 min, the trypan blue was removed, the cells were washed with PBS, fixed with 2% (v/v) paraformaldehyde, and air dried. Each well was then viewed via bright field microscopy to determine the number of stained (dead) versus unstained cells. Five fields were viewed for each treatment.
substance,measurement,setting,value
YSA-conjugated nanogels: core/shell pNIPMAm nanogels with YSA peptide coupled to shell amines via maleimide (EMCA) (YSAYPDSVPMMSC; also: coupled to nanogel shell amines via maleimide (EMCA)),siRNA encapsulation efficiency,[1],93±1%
same,siRNA retained in the nanogels,[2],approximately 70%
same,blue (dead) cells,Hey cells,not observed
